Measured values reported in publication PMC3366936.

The substances below were run against OPTN Δ1-394 in pCMV-BD (mammalian two-hybrid fusion) (UniProt Q96CV9) (assay: mammalian two-hybrid (luciferase reporter)). Conditions: HEK293 cells; 48 h after transfection; n = 3; parent: est. 6.5; read off a plot.
Chain of UniProt Q96CV9 (Q96CV9 395-577, stated change not applied): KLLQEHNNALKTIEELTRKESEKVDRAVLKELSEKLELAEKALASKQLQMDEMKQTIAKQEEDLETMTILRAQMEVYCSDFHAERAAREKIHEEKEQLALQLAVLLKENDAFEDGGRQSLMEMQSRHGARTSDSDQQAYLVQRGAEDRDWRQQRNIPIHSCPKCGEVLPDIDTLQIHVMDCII
Parameters: unit not given here
“E3-14.7K wild type in pCMV-AD (mammalian two-hybrid fusion) H42D; Q43Y; C44K; K45D; R46E” showed a response of 0.1.
“E3-14.7K wild type in pCMV-AD (mammalian two-hybrid fusion) E27D; R28Y; E29K; R30D; L31E” showed a response of 4.5.
Work on “E3-14.7K wild type in pCMV-AD (mammalian two-hybrid fusion) P87D; I88Y; T89K; V90D; T91E” yielded a response of 0.6.
“E3-14.7K wild type in pCMV-AD (mammalian two-hybrid fusion) H102D; F103Y; P104K; Y105D; Q106E” gave a response of 11.
“E3-14.7K wild type in pCMV-AD (mammalian two-hybrid fusion) L7D; E8Y; L9K; G11E” gave a response of 6.
“E3-14.7K wild type in pCMV-AD (mammalian two-hybrid fusion) T2D; E3Y; S4K; L5D; D6E” was tested, and the response was 5.1.
“E3-14.7K wild type in pCMV-AD (mammalian two-hybrid fusion) M38Y; V39K; N40D; L41E” gave a response of 2.2.
Substance “E3-14.7K wild type in pCMV-AD (mammalian two-hybrid fusion) R17D; L18Y; L19K; E20D; R21E” has a response of 2.8.
“E3-14.7K wild type in pCMV-AD (mammalian two-hybrid fusion) R22D; K23Y; A24K; A25D; S26E” gave a response of 2.9.
“E3-14.7K wild type in pCMV-AD (mammalian two-hybrid fusion) I12D; N13Y; T14K; E15D; Q16E” showed a response of 4.6.
“E3-14.7K wild type in pCMV-AD (mammalian two-hybrid fusion) T62D; T63Y; T64K; G65D; N66E” gave a response of 0.5.
Work on “E3-14.7K wild type in pCMV-AD (mammalian two-hybrid fusion) M82D; V83Y; G84K; E85D; K86E” yielded a response of 0.2.
